The text below walks through data of patent publication US20220017608A1 (Teva, published 2022).

Assay [1] deals with T1, rat β-CGRP (rat, not fully specified; C-terminal amide (CONH2); N-biotinylated when captured on the Biacore chip).
T1 construct: also called β-rat
T1 peptide: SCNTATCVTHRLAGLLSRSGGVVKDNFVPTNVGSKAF
The experiment in a line: Biacore (legend of Table 1), rat β-CGRP. On the technique in general: Surface plasmon resonance follows binding to a sensor surface in real time, without labels.

The target in assay [2] is T2, human α-CGRP (human, C-terminal amide (CONH2); N-biotinylated when captured on the Biacore chip).
T2 construct: N-biotinylated in the Biacore assays; also called α-Hu; α-human
T2 peptide: T1 peptide with S1A, N3D, D25N
The experiment in a line: Biacore, N-biotinylated CGRP captured on chip, 25 C.

The target of assay [3] is T3, rat α-CGRP (rat, not fully specified; C-terminal amide (CONH2); N-biotinylated when captured on the Biacore chip).
T3 construct: also called α-Rat; α-rat
T3 peptide: T1 peptide with K35E
The assay is described as above.

The target of assay [4] is T2, human α-CGRP. Description: blocking of human α-CGRP binding to the CGRP1-receptor in SK-N-MC cells; IC50 converted to binding sites.
The target of assay [5] is T2, human α-CGRP. The experiment in a line: competition binding assay on SK-N-MC cells: antibody blocks binding of human α-CGRP to the CGRP1 receptor.
Assay [6] has as its target T2, human α-CGRP. The experiment in a line: competition binding assay on SK-N-MC cells: antibody blocks binding of human α-CGRP to the CGRP1 receptor; value in IgG molecules.
Assay [7] deals with T2, human α-CGRP. The experiment in a line: Biacore, ratio of KD against rat α-CGRP.
For assay [8], the target named is T2, human α-CGRP. Description: competition binding assay on SK-N-MC cells: antibody blocks binding of human α-CGRP to the CGRP1 receptor; value in binding sites.
Assay [9] has as its target T2, human α-CGRP. Description: Biacore, N-biotin-CGRP on chip, 25 C.
In assay [10] the target is T3, rat α-CGRP. Description: Biacore, N-biotin-CGRP on chip, 25 C.
The target in another assay is T4, calcitonin (Homo sapiens (Human), UniProt P01258 85-116, not fully specified; Natural calcitonin has a C-terminal Pro amide and a Cys1-Cys7 disulfide. The patent passages shown say nothing on this.).
T4 peptide: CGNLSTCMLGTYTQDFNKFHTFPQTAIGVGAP
The experiment in a line: Biacore solution competition, chip probes free G1.

The target in the next assay is T5, adrenomedullin (Homo sapiens (Human), UniProt P35318 95-146, Natural adrenomedullin has a C-terminal Tyr amide and a Cys16-Cys21 disulfide. The patent passages shown say nothing on this.).
T5 sequence (peptide): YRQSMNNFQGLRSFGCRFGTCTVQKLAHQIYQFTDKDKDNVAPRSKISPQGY
Description: Biacore solution competition, chip probes free G1.

The next assay deals with T6, amylin (Homo sapiens (Human), UniProt P10997 34-70, not fully specified; Natural amylin has a C-terminal Tyr amide and a Cys2-Cys7 disulfide. The patent passages shown say nothing on this.).
T6 peptide: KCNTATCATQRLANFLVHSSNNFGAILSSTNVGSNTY
The experiment in a line: Biacore solution competition, chip probes free G1.

The target in assay [11] is T1, rat β-CGRP. Description: Biacore (legend of Table 1).
The next assay has as its target T7, cynomolgus monkey α-CGRP (cynomolgus monkey).
T7 construct: also called cyno CGRP
The experiment in a line: Biacore.

Assay [12] addresses T2, human α-CGRP. The experiment in a line: Biacore, N-biotin-CGRP on chip, 37 C.
For assay [13], the target named is T1, rat β-CGRP. Description: Biacore, N-biotin-CGRP on chip, 37 C.
Assay [14] has as its target T3, rat α-CGRP. Description: Biacore, N-biotin-CGRP on chip, 37 C.
The next assay has as its target T8, human β-CGRP (human, not fully specified; C-terminal amide (CONH2); N-biotinylated when captured on the Biacore chip).
T8 construct: also called β-human
T8 peptide: T1 peptide with S1A, V22M, D25S
The experiment in a line: Biacore, N-biotin-CGRP on chip, 37 C.

A further assay concerns the target T9, T30A (ends and bridges not checked).
T9 construct: also called HuαCGRP fragment 25-37 T30A
T9 peptide: Biotin-NNFVPANVGSKAF
The experiment in a line: Biacore 3000, 25 °C, alanine scan: N-biotinylated peptide on SA chip, G1 Fab titrated; fold loss versus wild-type 25-37 fragment. How it is done: (§1) Interaction analysis was conducted at 25° C. on a Biacore 3000™ system equipped with streptavidin-coated (SA) sensor chips (Biacore AB, Uppsala, Sweden) using a standard Biacore running buffer (HBS-P). […] Each amino acid between position 27-37 was then mutated individually to alanine and expressed the fold loss in affinity compared to the wild-type fragment. […] Fab fragments were titrated over the chip using 1 μM as the top concentration of a two-fold dilution series. Association and dissociation phases were monitored at 100 μl/min for 1 minute and 5 minutes respectively. Surfaces were regenerated with a mixture of 35% ethanol+25 mM NaOH+0.5M NaCl.

A further assay has as its target T10, K35A (ends and bridges not checked).
T10 construct: also called HuαCGRP fragment 25-37 K35A
T10 peptide: Biotin-NNFVPTNVGSAAF
Described as above. How it is done:
as §1

In a further assay the target is T11, N31A (ends and bridges not checked).
T11 construct: also called HuαCGRP fragment 25-37 N31A
T11 peptide: Biotin-NNFVPTAVGSKAF
The assay is described as above. How it is done: as §1

In a further assay the target is T12, V32A (ends and bridges not checked).
T12 construct: also called HuαCGRP fragment 25-37 V32A
T12 peptide: Biotin-NNFVPTNAGSKAF
The assay is described as above. How it is done: as §1

Another assay concerns the target T13, F27A (ends and bridges not checked).
T13 construct: also called HuαCGRP fragment 25-37 F27A
T13 peptide: Biotin-NNAVPTNVGSKAF
Described as above. The procedure:
as §1

The target of a further assay is T14, V28A (ends and bridges not checked).
T14 construct: also called HuαCGRP fragment 25-37 V28A
T14 peptide: Biotin-NNFAPTNVGSKAF
Described as above. The procedure:
as §1

In a further assay the target is T15, P29A (ends and bridges not checked).
T15 construct: also called HuαCGRP fragment 25-37 P29A
T15 peptide: Biotin-NNFVATNVGSKAF
Described as above. How it is done: as §1

As usually defined, the Kd is the free concentration of one partner at which half of the binding sites on the other are occupied at equilibrium, for simple one-to-one binding. Usually IC50 stands for the point on the concentration scale where inhibition reaches its midpoint. Usually Ki stands for a dissociation constant, usually derived from enzyme kinetics or from competition with a known ligand. A word on the koff: it is a measure of how fast the partners let go of each other. Broadly, the kon is a measure of how fast the partners come together.

Changes are numbered by the printed parent chain. Where no end group is shown, it is not given here. The star is where a group is joined. Biotin = O=C1N[C@H]2[C@H](CS[C@H]2CCCCC(=O)*)N1

B1: antibody G2 (antibody, V domains shown)
VH: EVQLQQSGPELVKPGASVKMSCKASGYTFTSSVMHWVKQKPGQGLEWIGYINPYNDGTKYNEKFKGKATLTSDKSSSTAYMELSSLTSEDSAVYYCAKGGNDGYWGQGTTLTVSS
VL: EIVLTQSPTTMAASPGEKITITCSASSSISSIYLHWYQQKPGFSPKVLIYRASNLASGVPARFSGSGSGTSYSLTIGTMEAEDVATYYCQQGSTIPFTFGSGTKLEIKR
notes: Anti-rat CGRP mouse monoclonal antibody (Wong et al. 1993); also called RN4901
For the molecule B1, the Kd stood at 17000 pM in the assay with rat β-CGRP [1], 17000 pM with human α-CGRP [2] and 1000 pM in the assay with rat α-CGRP [3]. In the assay with human α-CGRP [4], this molecule displayed an IC50 of 37000 pM.

B2: antibody G1 (antibody, human IgG2, kappa, V domains shown)
VH: EVQLVESGGGLVQPGGSLRLSCAASGFTFSNYWISWVRQAPGKGLEWVAEIRSESDASATHYAEAVKGRFTISRDNAKNSLYLQMNSLRAEDTAVYYCLAYFDYGLAIQNYWGQGTLVTVSS
VL: EIVLTQSPATLSLSPGERATLSCKASKRVTTYVSWYQQKPGQAPRLLIYGASNRYLGIPARFSGSGSGTDFTLTISSLEPEDFAVYYCSQSYNYPYTFGQGTKLEIKR
notes: Humanized IgG2 delta-a antibody derived from muMAb7E9; also called anti-CGRP antibody G1
Turning to B2, in the assay with human α-CGRP [5], the “IC50 (read off the curve)” value was roughly 0.1 µg/mL. Also, the values for the Ki in the assay with human α-CGRP [6] and in the assay with human α-CGRP [8] were 370 pM and 740 pM, respectively. In addition, in the assay with human α-CGRP [7], the “fold more potent affinity than for rat α-CGRP” value turned out to be 40 fold. Moreover, the 50% inhibitory concentration (IC50) amounted to 1800 pM with human α-CGRP [8] and 1200 pM with human α-CGRP [4]. Moreover, the Kd stood at 42 pM with human α-CGRP [9]; 1220 pM with rat α-CGRP [10]; 40 pM with human α-CGRP [2]; 1200 pM with rat α-CGRP [3]; 100 pM with rat β-CGRP [11]; 63 pM with cynomolgus monkey α-CGRP. Further, the equilibrium dissociation constant (Kd) was 63 pM with human α-CGRP [12], 152 pM with rat β-CGRP [13], 2570 pM in the assay with rat α-CGRP [14] and 155 pM in the assay with human β-CGRP. The T1/2 with human α-CGRP [9] turned out to be 24.7 h; with rat α-CGRP [10], 3.12 h; in the assay with human α-CGRP [12], 5.3 h; with rat β-CGRP [13], 2.45 h; with rat α-CGRP [14], 0.48 h; with human β-CGRP, 2.76 h. For the same molecule, the dissociation rate constant (koff) with human α-CGRP [9] was found to be 7.8e-06 s⁻¹; in the assay with rat α-CGRP [10] it was 6.18e-05 s⁻¹; in the assay with human α-CGRP [12] it was 3.63e-05 s⁻¹; in the assay with rat β-CGRP [13] it was 7.85e-05 s⁻¹; in the assay with rat α-CGRP [14], 0.000399 s⁻¹; with human β-CGRP, 6.98e-05 s⁻¹. The kon is 186000 M⁻¹ s⁻¹ with human α-CGRP [9]; 50800 M⁻¹ s⁻¹ with rat α-CGRP [10]; 587000 M⁻¹ s⁻¹ in the assay with human α-CGRP [12]; 516000 M⁻¹ s⁻¹ with rat β-CGRP [13]; 155000 M⁻¹ s⁻¹ in the assay with rat α-CGRP [14]; 451000 M⁻¹ s⁻¹ with human β-CGRP. In addition, the binding result with calcitonin, with adrenomedullin and with amylin was “no binding (tested: an excess)” in each case.

B3: Fab fragments of antibody G1 (Fab, V domains shown)
VH: B2 VH
VL: EIVLTQSPATLSLSPGERATLSCKASKRVTTYVSWYQQKPGQAPRLLIYGASNRYLGIPARFSGSGSGTDFTLTISSLEPEDFAVYYCSQSYNYPYTFGQGTKLEIK
notes: 'Purified Fab fragments of antibody G1 were generated'; also called G1 Fab
As to B3, the “Fold loss in affinity” value was found to be 1.7 fold with T30A; 8.1 fold in the assay with K35A; 1.9 fold with N31A; 6.1 fold in the assay with V32A; 1.4 fold in the assay with F27A; 1 fold in the assay with V28A. Besides, the “Fold loss in affinity” value with P29A is 2.8 fold.
